The source of these data is patent US20020065210A1 (Genentech, published 2002).

B1: recombinant Fc-tagged DcR3 (expressed as described in Example 7, purified by Protein A chromatography) (Fc fusion)
chain: VAETPTYPWRDAETGERLVCAQCPPGTFVQRPCRRDSPTTCGPCPPRHYTQFWNYLERCRYCNVLCGEREEEARACHATHNRACRCRTGFFAHAGFCLEHASCPPGAGVIAPGTPSQNTQCQPCPPGTFSASSSSSEQCQPHRNCTALGLALNVPGSSSHDTLCTSCTGFPLSTRVPGAEECERAVIDFVAFQDISIKRLQRLLQALEAPEGWGPTPRAGRAALQLKLRRRLTELLGAQDGALLVRLLQALRVARMPGLERSVRERFLPVH
modifications: biotinylated in the FACS assay (sites not given)
notes: also called biotinylated Fc-tagged DcR3; DcR3-IgG; not shown: Fc tag (Fc region of IgG)

In assay [1] the target is Fas expressed on human HeLa S3 cells (human) (UniProt P25445). Kind of assay: cell-based or functional assay.
Assay [2] deals with T1, OPG (also referred to as TRANCE, RANKL), full-length, expressed from pRK5 on transiently transfected 293 cells (UniProt O14788 1-317, limits assumed).
T1 construct: whole, on cells
T1 sequence (looked up): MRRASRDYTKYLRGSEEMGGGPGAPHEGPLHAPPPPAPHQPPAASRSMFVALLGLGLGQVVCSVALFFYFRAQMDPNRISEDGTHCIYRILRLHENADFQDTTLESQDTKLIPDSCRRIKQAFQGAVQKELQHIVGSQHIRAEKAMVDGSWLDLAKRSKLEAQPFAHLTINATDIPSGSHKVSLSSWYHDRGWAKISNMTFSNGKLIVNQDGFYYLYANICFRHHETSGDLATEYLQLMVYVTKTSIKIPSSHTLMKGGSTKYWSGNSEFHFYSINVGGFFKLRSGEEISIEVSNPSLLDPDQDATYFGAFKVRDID
Kind of assay: FACS, biotinylated Fc-tagged DcR3 on transiently transfected 293 cells. An excerpt: (§1) Human 293 cells (ATCC CRL 1573) were transiently transfected with empty pRK5 vector (see Example 5) or pRK5 encoding full-length TNF-alpha [Pennica et al., Nature, 312:724-729 (1984)], Fas ligand [Suda et al., Cell, 75:1169-1178 (1993)], LIGHT [Mauri et al., Immunity, 8:21 (1998)], Apo-2 ligand [[WO 97/25428 published Jul. 17, 1997)], Apo-3 ligand (also referred to as TWEAK) [Marsters et al., Current Biology, 8:525 (1998); Chicheportiche et al., J. Biol. Chem., 272:32401 (1997)], or […] (also referred to as TRANCE, RANKL) [Wong et al., J. Biol. Chem., 272:25190 (1997); Anderson et al., Nature, 390:175 (1997); Lacey et al., Cell, 93:165 (1998)].

Assay [3] concerns the target B1. The description is as above.
Excerpt: as §1

In assay [4] the target is T2, Fc-tagged ectodomain of TNFR1 (UniProt P19438 30-211, limits assumed).
T2 construct: extracellular domain; Control immunoadhesin; also called Fc-tagged TNFR1; not shown: Fc tag
T2 sequence (looked up): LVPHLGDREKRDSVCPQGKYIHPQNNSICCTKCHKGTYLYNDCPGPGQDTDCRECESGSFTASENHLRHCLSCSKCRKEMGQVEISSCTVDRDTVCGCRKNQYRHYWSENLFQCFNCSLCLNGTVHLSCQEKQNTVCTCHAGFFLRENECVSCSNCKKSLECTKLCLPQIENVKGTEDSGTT
Nature of the assay: co-immunoprecipitation with protein A-sepharose, anti-Fas ligand immunoblot. The procedure:
Precipitates were resolved by SDS polyacrylamide gel electrophoresis (4-20% gradient) under reducing conditions (25 mM dithiothreitol), and visualized by immunoblot, followed by enhanced chemiluminescence detection (Amersham) with rabbit polyclonal anti-Fas ligand antibody (Oncogene Research Products) at 2 microgram/ml.
For orientation: In western blotting, separated proteins are transferred to a membrane and probed.

Sequence of Fas expressed on human HeLa S3 cells (human) (P25445 26-335): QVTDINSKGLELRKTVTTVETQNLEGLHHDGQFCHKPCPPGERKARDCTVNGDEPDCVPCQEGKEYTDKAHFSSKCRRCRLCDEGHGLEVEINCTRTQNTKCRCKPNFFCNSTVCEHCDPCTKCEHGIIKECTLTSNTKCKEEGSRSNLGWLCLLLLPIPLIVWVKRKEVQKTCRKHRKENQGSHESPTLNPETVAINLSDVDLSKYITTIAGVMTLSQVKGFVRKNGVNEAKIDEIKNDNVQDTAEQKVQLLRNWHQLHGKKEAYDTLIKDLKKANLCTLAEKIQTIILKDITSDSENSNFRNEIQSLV

Consider “full-length Fas ligand expressed from pRK5 on transiently transfected cells (from UniProt P48023 1-281)”, for which, in assay [1], the apoptosis of transfected HeLa S3 cells (annexin binding by FACS) was determined as 25%. As to B1, the binding result in assay [2] was “no binding”.

B2: full-length Apo-3 ligand (also referred to as TWEAK) expressed from pRK5 on transiently transfected 293 cells (ligand, UniProt O43508 1-249, looked up)
chain: MAARRSQRRRGRRGEPGTALLVPLALGLGLALACLGLLLAVVSLGSRASLSAQEPAQEELVAEEDQDPSELNPQTEESQDPAPFLNRLVRPRRSAPKGRKTRARRAIAAHYEVHPRPGQDGAQAGVDGTVSGWEEARINSSSPLRYNRQIGEFIVTRAGLYYLYCQVHFDEGKAVYLKLDLLVDGVLALRCLEEFSATAASSLGPQLRLCQVSGLLALRPGSSLRIRTLPWAHLKAAPFLTYFGLFQVH
notes: whole, on cells
For B2, the binding result in assay [3] is listed as “no binding”.

B3: purified, soluble Fas ligand (Alexis Biochemicals) (ligand, UniProt P48023 103-281, looked up)
chain: QLFHLQKELAELRESTSQMHTASSLEKQIGHPSPPPEKKELRKVAHLTGKSNSRSMPLEWEDTYGIVLLSGVKYKKGGLVINETGLYFVYSKVYFRGQSCNNLPLSHKVYMRNSKYPQDLVMMEGKMMSYCTTGQMWARSSYLGAVFNLTSADHLYVNVSELSLVNFEESQTFFGLYKL
notes: Commercial soluble form
As to B3, in assay [4], the binding result is on record as “no binding”.
